{"source": "patent US5663314", "binders": {"B1": {"name": "MAPK activator 2 (MAPKK1b), 45 kDa polypeptide purified from EGF-stimulated A431 cells (enzyme)", "chain": "MPKKKPTPIQLNPAPDGSAVNGTSSAETNLEALQKKLEELELDEQQRKRLEAFLTQKQKVGELKDDDFEKISELGAGNGGVVFKVSHKPSGLVMARKLIHLEIKPAIRNQIIRELQVLHECNSPYIVGFYGAFYSDGEISICMEHMVIKGLTYLREKHKIMHRDVKPSNILVNSRGEIKLCDFGVSGQLIDSMANSFVGTRSYMSPERLQGTHYSVQSDIWSMGLSLVEMAVGRYPIPPPDAKELELMFGCQVEGDAAETPPRPRTTPGRPLSSYGMDSRPPMAIFQLLDYIVNEPPPKLPSGVFSLEFQDFVNKCLIKNPAERADLKQLMVHAFIKRSDAEEVDFAGWLCSTIGLNQPSTPTHAAGV"}}, "key": {"[1]": {"biological_target": "poly (Glu^80 -Tyr^20)"}, "[2]": {"biological_target": "T1, S6 peptide", "T1 sequence (peptide)": "RRLSSLRA"}, "[3]": {"biological_target": "Raf-1"}, "[4]": {"biological_target": "Protamine"}, "[5]": {"biological_target": "Ribosomal S6 protein"}, "[6]": {"biological_target": "Kemptide"}, "[7]": {"biological_target": "T2, Syntide-2", "T2 sequence (peptide)": "PLARTLSVAGLPGKK"}, "[8]": {"biological_target": "T3, Band-3 peptide", "T3 sequence (peptide)": "MEELQDDYEDDMEERR"}, "[9]": {"biological_target": "bovine myelin basic protein (bovine) (UniProt P02687)", "sequence (P02687 whole entry)": "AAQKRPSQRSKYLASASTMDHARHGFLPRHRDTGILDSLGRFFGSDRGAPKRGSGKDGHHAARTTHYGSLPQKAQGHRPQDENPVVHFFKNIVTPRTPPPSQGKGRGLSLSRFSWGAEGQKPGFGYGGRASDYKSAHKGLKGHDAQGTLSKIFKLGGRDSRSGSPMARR"}, "[10]": {"biological_target": "T4, RR-SRC peptide", "T4 sequence (peptide)": "RRLIEDAEYAARG"}, "[11]": {"biological_target": "Denatured enolase"}, "[12]": {"biological_target": "T5, TEY peptide", "T5 sequence (peptide)": "PEHDHTGFLTEYVATRWYR"}, "[13]": {"biological_target": "Casein"}, "[14]": {"biological_target": "Histones"}, "[15]": {"biological_target": "T6, ETE peptide", "T6 sequence (peptide)": "RRREEETEEE"}, "[16]": {"biological_target": "Heat-denatured ERK2 (Rattus norvegicus (Rat)) (UniProt P63086)"}, "[17]": {"biological_target": "Recombinant ERK2 expressed in E. coli (Rattus norvegicus (Rat)) (UniProt P63086)"}}, "data": [{"binder": "B1", "values": [{"measurement": "Phosphorylation", "setting": "[1]", "value": "< 0.005", "unit": "nmol/min/mg"}, {"measurement": "Phosphorylation", "setting": "[2]", "value": 0.07, "unit": "nmol/min/mg"}, {"measurement": "Phosphorylation", "setting": "[3]", "value": "< 0.01", "unit": "nmol/min/mg"}, {"measurement": "Phosphorylation", "setting": "[4]", "value": 0.03, "unit": "nmol/min/mg"}, {"measurement": "Phosphorylation", "setting": "[5]", "value": "< 0.005", "unit": "nmol/min/mg"}, {"measurement": "Phosphorylation", "setting": "[6]", "value": "< 0.005", "unit": "nmol/min/mg"}, {"measurement": "Phosphorylation", "setting": "[7]", "value": 0.04, "unit": "nmol/min/mg"}, {"measurement": "Phosphorylation", "setting": "[8]", "value": "< 0.005", "unit": "nmol/min/mg"}, {"measurement": "Phosphorylation", "setting": "[9]", "value": 0.12, "unit": "nmol/min/mg"}, {"measurement": "Phosphorylation", "setting": "[10]", "value": 0.005, "unit": "nmol/min/mg"}, {"measurement": "Phosphorylation", "setting": "[11]", "value": "< 0.005", "unit": "nmol/min/mg"}, {"measurement": "Phosphorylation", "setting": "[12]", "value": 0.005, "unit": "nmol/min/mg"}, {"measurement": "Phosphorylation", "setting": "[13]", "value": "< 0.005", "unit": "nmol/min/mg"}, {"measurement": "Phosphorylation", "setting": "[14]", "value": 0.04, "unit": "nmol/min/mg"}, {"measurement": "Phosphorylation", "setting": "[15]", "value": "< 0.005", "unit": "nmol/min/mg"}, {"measurement": "Phosphorylation", "setting": "[16]", "value": "< 0.005", "unit": "nmol/min/mg"}, {"measurement": "Phosphorylation", "setting": "[17]", "value": 60, "unit": "nmol/min/mg"}]}]}
